Reference: the DeepSol protein solubility set

Experiment: soluble on expression in E. coli; label from the status in PepcDB or PDB records

Sequence | soluble on expression in E. coli
MKPESHCVYLELSAEREHKFYEVTVEGAELTIRYGRIGTEGQTQRKSFADSAGAQAEAEKKLVEKRKKGYGDAVRGQTEKKAVEQPRLKLPRKFEPYRERIEATLRPVLLLEVLEEEPGPLGSKVGGVPYRVQGEAWPTDTEGRPLTFLAQLNFADLPPLEGYPENGILQFFIGRDDLYGCDFMRPEEGNPASFEVRWSPEPQMDLSQLDVETPDFDDDGFSPLETLRGFGLRGQQVEQPMSWCDCHFEQAIGLDLCDNSEGPEGRALGEWRQEKYDELATYGHQVGGYPSFTQEDPRTADDPRILLFQLDSEAGKITWGDVGIANFFIDPDDLARWDFSRVAYNWDCTLEHHHHHH | soluble
MKPIDEFLYVKQNYLTSDTNSLMRLYFPIIGSDAAGLYQYFVSFFDNGEKKHKFSEILNHTQFGMACFENALSVLTAMDLLVFYRQENLYYIKLKAPLNAETFLKNAVYRHLLEQKIGQVAVEHLDLHLPREAQDLSKQFSEVFTAAGQLDLKTPKSKTDFDLDHFKDLMIRDNLQFTDEQTDVIALYILSEKYQLTWYETYLLAKETASNYRISLKRMQAKQEQRDHVDADNSFSKKEQIIIEEAKADKVEVFLAKIKKTRHAAITKDERSLLAELAEMGFLDEVINIMLLYTLDKTNTANINKTYIMKIANDFAFQKIDSAEKAVLKLRSFAERKTKQNQKKIKESSKNNVPEWSNQDYQNNTTADEQARLDEIKRKTLAR | not soluble
MKPLKRHPALIGLSRDHHHSLSLCVRLLRTPEERHRDELEPHFSELETHFREEETKFAPIWQNVAPELKQRFEKDHARLRQMMASPEYGNAAWNTAFATTLRDHARFEERELFPAAEPFLPA | not soluble
MKPPICRRMSLPPVLAKKEGERIQVPEGGELVCYRNQEDQHLFLKIEYSRETMIKLSSSVFCYARPTGLKEVSDELPELLGLPHSIPLTDSPPNFECLPEPLAHVSGCNSHFSMNHPPPLLSPLRGPVTEADEAMRTLSSHRELQKRLQNMSMRGELSPSGCLVDSCDTPAIRQIRNPQFT | not soluble
MKPRGICFFDMDGTLLNSESKVLDTSLQALDKLRENNVIPVIATGRTLIEISHQMKITGIESAVMMNGQMAIFEGEKVYEDVIDADLLDRLTEEAKSQNVEVCYYNDKRIGATASTPVVKAHYDFLGEPMPKVRPNMYKEETINMALLLLETGDDYFPERFPELQFVRNTPFSNDVLRKGGSKAVGISKLLEVMGYQDVPTYAFGDGMNDLEMFGAVDYAIAMENAVPLLKEKADFVTKDNNSDGIMLGLKQFDLI | not soluble
MKPVFLDFEQPIAELTNKIDELRFVQDESAVDISDEIHRLQKKSNDLTKSIFSKLTPAQISQVSRHPQRPYTLDYIEALFTDFEELHGDRHFADDYAIVGGLARFNGQSVMVVGHQKGRDTKEKIRRNFGMPRPEGYRKALRLMKTAEKFGLPVMTFIDTPGAYPGIGAEERGQSEAIGKNLYELTRLRVPVLCTVIGEGGSGGALAVALGDYVNMLQYSTYSVISPEGCASILWKTAEKAADAAQALGITADRLQKLDLVDTVIKEPLGGAHRDFGQTMKNVKAVLEKQLHEAQSIPLADLLSRRFDRIMAYGKFSEQ | not soluble
MKPYLEEKLEGARKSVPGFALEELKQKIISSPIQFGKSDIDDLVSNLLKRYEQTKENSLIGKIDSIFKEISDIEKVMSAKQPEPAQQQAPVEKPKKKAKLEVIGDDVVSIMVSLRWLEFLLDNYGPENTLDVLDYYESLGWISATVKEQMMKYAKMTGVMNPAQEYKIKPSIQDHIINMLFIEKLRGEEINRDLIEALEREFRTIRKGVDELYGI | soluble
MKPYYVTTAIAYPNAAPHVGHAYEYIATDAIARFKRLDRYDVRFLTGTDEHGLKVAQAAAAAGVPTAALARRNSDVFQRMQEALNISFDRFIRTTDADHHEASKELWRRMSAAGDIYLDNYSGWYSVRDERFFVESETQLVDGTRLTVETGTPVTWTEEQTYFFRLSAYTDKLLAHYHANPDFIAPETRRNEVISFVSGGLDDLSISRTSFDWGVQVPEHPDHVMYVWVDALTNYLTGAGFPDTDSELFRRYWPADLHMIGKDIIRFHAVYWPAFLMSAGIELPRRIFAHGFLHNRGEKMSKSVGNIVDPVALAEALGVDQVRYFLLREVPFGQDGSYSDEAIVTRINTDLANELGNLAQRSLSMVAKNLDGRVPNPGEFADADAALLATADGLLERVRGHFDAQAMHLALEAIWLMLGDANKYFSVQQPWVLRKSESEADQARFRTTLYVTCEVVRIAALLIQPVMPESAGKILDLLGQAPNQRSFAAVGVRLTPGTALPPPTGVFPRYQPPQPPEGK | not soluble
MKQSIVSLAQVIRSKNAGPYELVLDILFKTKENYERVKSSGQLTPELIARLYHVEPDFIHRIVWFDPSNAVKIVMPRDIISGNVGDNDVYGAQQHAPLLNMSFDL | soluble
MKQWADDENLPMERYKNYQMIVPAFIIKDILDGKIPETFEDSKNIKMIEASWGEESYTKGHIPTSVHVNTDIIEPPPTWMLDNDDNLTKFALDYGLTKDDTVIVSSSTPMASYRLAVILRYIGVKDVRVLNGGTNSWLSAGYELEFISNPKLEHHHHHH | not soluble
MKRDGHTHTEFCPHGTHDDVEEMILKAIELDFDEYSIVEHAPLSSEFMKNTAGNQEAVTTASMSMSDLPYYFKKMNQMKKKYASDLLIHIGFEVDYLIGYEDFTRDFLNEYGPQTDDGVLSLHFLEGQGGFRSIDFTAEDYNEGIVQFYGGFEQAQLVYLAGVKQSIEADLGAFKPRRIGHISLCQKFQQFFGADGRDFTAEVIAEFEAILALVKKRGYELDFNTAGLFKPLCKETYPPKEIVTLARALEIPFVYGSDSHGVADIGRGYNTYCQKLEHHHHHH | soluble
MKREEIADLMAFVVVAEERSFTRAAARLSMVQSALSQIVRRIEERLGLRLLTRTTRSVVPTEAGEHLLSVLGPILHDIDSALTSLSDLQNRPSGTIRITTVEHAAKTILLPAMRTFLKSHPEIDIQLTIDYGLTDVVSERFDAGVLRCTGNSGYYHLFFF | not soluble
MKRFDLRPLKAGIFERLEELIEKEMQPNEVAIFMFEVGDFSNIPKSAEFIQSKGHELLNSLRFNQADWTIVVRKKA | not soluble
MKRGDIAHGLRLSGFKSLFPFSLHWCHTASKSVNCTWHQHEDHLELQYASTVMRFDYVWLRDHCRSASCYNSKTHQRSLDTASVDLCIKPKTIRLDESTLFFTWPDGHVTRYDLDWLVKNSYEGQKQEVIQPRVLWNAKLYQDAQLPSVDFQGFLETKEGLKKFLQNFLLYGIAFVENVPPTQEHTEKLARRVSLIRETIYGRMWYFTSDFSRGDTAYTKLALDRHTDTTYFQEPCGIQVFHCLKHEGTGGRTLLVDGFYAAQQVLQRAPEEFDLLSQVPLKHEYIENVGQCHNHMIGVGPILNIYPWNKELYLIRYNNYDRAVINTVPYDVVRRWYAAHRTLTTELRRPENELWVKLKPGKVLFIDNWRVLHGRESFTGYRQLCGCYLTRDDVLNTARILGLHA | not soluble
MKRHFETTRRIVIKVGTSSLVQTSGKINLSKIDHLAFVISSLMNRGMEVILVSSGAMGFGLDILKMDKRPQEISQQQAVSSVGQVAMMSLYSQIFSHYQTHVSQILLTRDVVVFPESLQNVTNSFESLLSMGILPIVNENDAVSVDEMDHKTKFGDNDRLSAVVAKITKADLLIMLSDIDGLFDKNPNIYDDAVLRSHVSEITDDIIKSAGGAGSKFGTGGMLSKIKSAQMVFDNNGQMILMNGANPRDILKVLDGHNIGTYFAQGKLEHHHHHH | not soluble
MKRILLSLLAMATLVGCGSKDDNNPTPPQRPDFTKEQQNYLPTKKVKHVTATYVEADYENGSYPSVQYKDFLNPELNQGQKFTVKTMEYFYEYDNAGRITKVTFKREGDSDIVSTLTYSNISVTITSPPPYDGIREPRSIEYGLNSSGNILSLGVYNEKQQLKNSMSAGTFTWENDNLTKISRKVTRNGVVKERGVKFSYNSATNKNKFYLLDHTGDDIRSYQEYFALSIAIIKGAAPKNLPIEATPLEENDSYSSRFERPVSFSYTFDGDEFVKTITEKENKFVPGSLYSYVPNNGNNEIGTYWNELQTLIANIENKTVTNKSYKLISDDGSTRIFEITVPVKVEKDSNGKTINLNVNKVCKFTVSYNNTSATDIRMEATYYADIITNYELNY | not soluble
MKRISYIEDFEQWESGFSFYNPVKVRFGEVDMFGHVNNVVAFTYFEEARIALFKELGFMQEWTHASSETMIVVADLQCNFIKQIYFDEQLKVYVKAGSVGNSSLDLHYMVKNAEGEICLVGRGMMVQASKKTGRGEPWPEEWKKKLLQ | soluble
MKRKKPTIHDVAAKAGVGLGTVSRVLNDHPAVRHETRARVLRAMEELGYAPNPHARRIAGGRSYTVSVLLPFVATEFYRRLVEGIEGVLLEQRYDLALFPILSLARLKRYLENTTLAYLTDGLILASYDLTERFEEGRLPTERPVVLVDAQNPRYDSVYLDNRLGGRLAGAYLARFPGPIFAIAVEEEPDRAFRRTVFAERMAGFQEALKEAGRPFSPDRLYITRHSQEGGRLALRHFLEKASPPLNVFAGADQV | soluble
MKRLLLTLTFPLFFVGCASQNPTHMAFSPQVPDISQQTSRPVQISLDTIDSRNAEYVARFMEEGTKTRLVGPSEPPKLLLDEVFRNGFTQAGYQIDPSATNSIQVQLEELQMDVTKKTFGYEAKHSVRIAVQARNSSQELVKRYKAKGVLKGPLTPDFATLEMDMNKLLGQLTGEILNDPELNQFLQK | soluble
MKRLWQHCHAATLKGGKYSIVEDAALVTDGPLIHWIGPRAELPPGDYAERIDLGGAWLTPGLIDCHTHAVFGGNRSGEFEQRLEGVSYAEIAAAGGGIASTVRATREASEEELLASARKRLEPLLRDGVTALEIKSGYGLDLASERKMLRVIRRLGERLPATVRSTCLAAHALPPEYAGRADDYIEHICSTMLPALAGEGLVDAVDAFCEHLAFSPAQVERVFIAARELGLPVKLHAEQLSSLHGSSLAARYRALSADHLEYMTEDDARAMGEAGTVAVLLPGAFYLLRETQLPPIDALRRHGVAMAIASDLNPGTSPALSLRLMLNMACTLFRLTPEETLAGVTLHAARALGLEASHGSLEVGKLADFVAWDIERPAELAYWLGGDLPKRVIRHAEEVYRG | not soluble
MKRVEDWIKQAERDLEEARYAKSGGYYELACFLSQQCAEKAVKGLLQFQGIEKRGHSISHLLTNPPADILQCATFLDKQYTPSRYPDVYYEGAPYEYYTERDADECINCAIRILNWVKGQIK | soluble
MKRVGKQTWVFDEDIYIRAAATAVGPLEADGPLGGYFDIWHRDLYCGEETWELAERRLMSEAVARCLQKAGVSAHDVDLFLAGDLLNQNATSNYVARELPIPFLCLFGACSTSMQTLAAAAAFVAGGLADTALVATSSHNATAERQFRYPTELGVQKPKTATFTVTGAGAALVGRTPGRWRIRAATIGKVIDAGLTNPLDMGAAMAPAAADTIEQHFRDLGTSPSDYDLIVTGDLSRVGSVIVRELLAESGYDISDVYNDCGLMIYRPDQKVFAGGSGCACSAVVTYGYLFHELDRGTFHRLFVVATGALLSQTMVQQKQSIPAVAHGVVIEAAKLEHHHHHH | not soluble
MKSDDLERLEESQEMQQLIHAAKEQYEQEKSVHPPVAYAAFAQNLRERQKDGKMKAKQEPPERETFEVKGGKRSGISPWWLVAACLLGGIIGYGISTTSDRQEAGLERLAVADTVIVVRERVDTVYREVEVPSQPLVASRSTVKSKSTGLTKEHVKQSRKAVQKAEPAFISIEFLQQQQNLPDPNSECYAANGMTVAEGNYPFHLLATVPCK | not soluble
